# Test results: publication PMC10622425
# Where “and” joins values, the source holds several entries; their conditions need not be identical. Identical values can stand only once.
# Target: M2 protein of human Influenza A virus A/WSN/33 (H1N1), wild type (Influenza A virus A/WSN/33 (H1N1))
substance,measurement,value
"M2 protein of human Influenza A virus A/WSN/33 (H1N1), wild type (natural protein)",stoichiometry N,4 and 2 and 3
